Experimental data reported in PMC12523770.

Biological target: MyD88 (myeloid differentiation primary response 88), endogenous in mouse bone marrow-derived macrophages (mouse (endogenous in BMDMs)), P22366
Assay: cross-linking; WT BMDMs stimulated with 1 µg/mL poly(I:C) for the indicated times (or primed with LPS, positive control); cleared freeze-thaw lysate with 2 mM DSS, 2 h, room temperature; SDS-PAGE, anti-MyD88 blot
Details: remark: other sources report otherwise

B1: MyD88 (myeloid differentiation primary response 88), endogenous in mouse bone marrow-derived macrophages, P22366 1-296 (natural protein)
chain: MSAGDPRVGSGSLDSFMFSIPLVALNVGVRRRLSLFLNPRTPVAADWTLLAEEMGFEYLEIRELETRPDPTRSLLDAWQGRSGASVGRLLELLALLDREDILKELKSRIEEDCQKYLGKQQNQESEKPLQVARVESSVPQTKELGGITTLDDPLGQTPELFDAFICYCPNDIEFVQEMIRQLEQTDYRLKLCVSDRDVLPGTCVWSIASELIEKRCRRMVVVVSDDYLQSKECDFQTKFALSLSPGVQQKRLIPIKYKAMKKDFPSILRFITICDYTNPCTKSWFWTRLAKALSLP
stoichiometry N: 2
